Assay results from US8299028B2, “Chimeric peptide antagonist for GPCR135 or GPCR142” (Janssen Pharmaceutica NV, priority 2007, dated 2012).

How the values were obtained:
[1] = molecular target: T1, human LGR7 (Homo sapiens, UniProt Q9HBX9); test: Radioligand binding assay, 125I-relaxin-2 tracer, COS-7 cells expressing LGR7; set-up: expressed in transfected cells
T1 sequence (Q9HBX9 1-757): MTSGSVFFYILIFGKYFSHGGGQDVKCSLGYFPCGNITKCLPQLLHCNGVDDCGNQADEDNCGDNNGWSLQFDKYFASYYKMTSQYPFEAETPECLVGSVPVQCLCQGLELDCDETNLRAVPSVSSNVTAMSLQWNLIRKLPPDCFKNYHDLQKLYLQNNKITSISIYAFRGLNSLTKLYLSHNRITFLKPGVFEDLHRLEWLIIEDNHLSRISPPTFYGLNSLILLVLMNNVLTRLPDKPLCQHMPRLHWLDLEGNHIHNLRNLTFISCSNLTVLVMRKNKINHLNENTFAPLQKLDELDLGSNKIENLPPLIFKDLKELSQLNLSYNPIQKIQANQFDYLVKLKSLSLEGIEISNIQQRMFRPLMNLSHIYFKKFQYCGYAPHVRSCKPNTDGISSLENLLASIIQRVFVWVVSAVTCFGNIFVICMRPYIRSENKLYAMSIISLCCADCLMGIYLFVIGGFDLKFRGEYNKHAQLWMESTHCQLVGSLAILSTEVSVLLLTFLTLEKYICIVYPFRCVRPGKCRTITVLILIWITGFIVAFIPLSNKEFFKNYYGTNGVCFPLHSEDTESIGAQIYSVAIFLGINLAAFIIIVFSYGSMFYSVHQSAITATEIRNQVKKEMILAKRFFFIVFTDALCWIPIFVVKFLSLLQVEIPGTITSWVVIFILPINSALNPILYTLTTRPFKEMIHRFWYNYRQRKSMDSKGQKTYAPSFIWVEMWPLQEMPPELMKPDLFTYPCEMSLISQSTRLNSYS
From the text: (§1) COS-7 cells in 24-well tissue culture plates transiently expressing GPCR135, GPCR142 or LGR7 were used in radioligand binding assays as described by Liu et al., 2005a, J. Biol. Chem., 280:292-300. ^125I-Relaxin-3/INSL5 (^125I-R3/I5), a radiolabeled chimeric peptide with the human relaxin-3 B-chain and the human INSL5 A-chain (Liu et al., 2005b), was used at a final concentration of 50 pM as the tracer to characterize the binding properties of all truncated relaxin-3 peptides for GPCR135 and GPCR142. ^125I-relaxin-2 (PerkinElmer Biosciences, Boston) was used at a final concentration of 50 pM to characterize the binding properties of the truncated peptides for the relaxin receptor (LGR7). The results were analyzed by GraphPad Prism 4.0 software (Graphpad, San Diego). The IC50 values, which are the ligand concentrations that inhibited 50% of the maximum specific binding, were then calculated.

[2] = molecular target: T2, human GPCR135 (Homo sapiens, UniProt Q9NSD7); test: Radioligand binding assay, 125I-R3/I5 tracer, COS-7 cells expressing GPCR135; set-up: expressed in transfected cells; host or cells: COS-7
T2 sequence (Q9NSD7 1-469): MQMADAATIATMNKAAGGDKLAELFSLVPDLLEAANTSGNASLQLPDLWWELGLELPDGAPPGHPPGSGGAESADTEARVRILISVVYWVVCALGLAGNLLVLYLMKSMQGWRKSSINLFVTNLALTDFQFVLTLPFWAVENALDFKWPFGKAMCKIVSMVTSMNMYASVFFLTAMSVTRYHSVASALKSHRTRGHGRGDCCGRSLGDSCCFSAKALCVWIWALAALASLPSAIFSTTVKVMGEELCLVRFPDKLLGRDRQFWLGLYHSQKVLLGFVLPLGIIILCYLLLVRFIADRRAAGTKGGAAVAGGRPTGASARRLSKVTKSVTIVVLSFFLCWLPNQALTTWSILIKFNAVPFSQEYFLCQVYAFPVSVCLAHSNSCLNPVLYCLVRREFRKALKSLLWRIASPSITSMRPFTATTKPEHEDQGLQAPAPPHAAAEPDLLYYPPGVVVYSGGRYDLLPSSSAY
From the text: as §1

R3(BΔ23-27)R: Relaxin-3 mutant: B-chain SEQ ID NO:15 (Gly23-Trp27 deleted plus C-terminal Arg), relaxin-3 A-chain SEQ ID NO:13
affinity of human LGR7 [1]: low affinity | affinity of human GPCR135 [2]: high affinities
